Among the data in article PMC12796099 are autocrine GPCR activation by αPre-ligand-display fusion, DCyFIR mTq2 transcriptional reporter, relative to the Ccw14 fusion (% of the activity of the Ccw14 fusion) values, retold here.

This test deals with human somatostatin receptor 5 (SSTR5) (human) (UniProt P35346).
Sequence of UniProt P35346 (P35346 whole entry): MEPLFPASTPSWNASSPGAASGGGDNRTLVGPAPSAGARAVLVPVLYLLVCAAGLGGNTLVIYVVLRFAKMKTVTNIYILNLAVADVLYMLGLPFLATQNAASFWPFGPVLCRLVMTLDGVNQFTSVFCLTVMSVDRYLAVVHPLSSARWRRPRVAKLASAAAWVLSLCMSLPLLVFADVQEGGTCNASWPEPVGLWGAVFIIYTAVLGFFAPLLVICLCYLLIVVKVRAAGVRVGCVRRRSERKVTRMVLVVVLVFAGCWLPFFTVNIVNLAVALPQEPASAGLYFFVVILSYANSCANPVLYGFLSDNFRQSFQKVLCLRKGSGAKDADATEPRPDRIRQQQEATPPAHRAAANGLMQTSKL

In turn, “SRIF-14-Sed1 periplasmic display fusion (from UniProt P61278 103-116) (ligand)” came in with an autocrine GPCR activation by αPre-ligand-display fusion, DCyFIR mTq2 transcriptional reporter, relative to the Ccw14 fusion (% of the activity of the Ccw14 fusion) of 30.
